Data as given in IntAct's records for PubMed 29039417.

B1: Protein PTHB1 (Homo sapiens), Q3SYG4 (parent)
chain: MSLFKARDWWSTILGDKEEFDQGCLCLANVDNSGNGQDKIIVGSFMGYLRIFSPHPAKTGDGAQAEDLLLEVDLRDPVLQVEVGKFVSGTEMLHLAVLHSRKLCVYSVSGTLGNVEHGNQCQMKLMYEHNLQRTACNMTYGSFGGVKGRDLICIQSMDGMLMVFEQESYAFGRFLPGFLLPGPLAYSSRTDSFLTVSSCQQVESYKYQVLAFATDADKRQETEQQKLGSGKRLVVDWTLNIGEQALDICIVSFNQSASSVFVLGERNFFCLKDNGQIRFMKKLDWSPSCFLPYCSVSEGTINTLIGNHNNMLHIYQDVTLKWATQLPHIPVAVRVGCLHDLKGVIVTLSDDGHLQCSYLGTDPSLFQAPNVQSRELNYDELDVEMKELQKIIKDVNKSQGVWPMTEREDDLNVSVVVSPNFDSVSQATDVEVGTDLVPSVTVKVTLQNRVILQKAKLSVYVQPPLELTCDQFTFEFMTPDLTRTVSFSVYLKRSYTPSELEGNAVVSYSRPTDRNPDGIPRVIQCKFRLPLKLICLPGQPSKTASHKITIDTNKSPVSLLSLFPGFASQSDDDQVNVMGFHFLGGARITVLASKTSQRYRIQSEQFEDLWLITNELILRLQEYFEKQGVKDFACSFSGSIPLQEYFELIDHHFELRINGEKLEELLSERAVQFRAIQRRLLARFKDKTPAPLQHLDTLLDGTYKQVIALADAVEENQGNLFQSFTRLKSATHLVILLIALWQKLSADQVAILEAAFLPLQEDTQELGWEETVDAAISHLLKTCLSKSSKEQALNLNSQLNIPKDTSQLKKHITLLCDRLSKGGRLCLSTDAAAPQTMVMPGGCTTIPESDLEERSVEQDSTELFTNHRHLTAETPRPEVSPLQGVSE
partner: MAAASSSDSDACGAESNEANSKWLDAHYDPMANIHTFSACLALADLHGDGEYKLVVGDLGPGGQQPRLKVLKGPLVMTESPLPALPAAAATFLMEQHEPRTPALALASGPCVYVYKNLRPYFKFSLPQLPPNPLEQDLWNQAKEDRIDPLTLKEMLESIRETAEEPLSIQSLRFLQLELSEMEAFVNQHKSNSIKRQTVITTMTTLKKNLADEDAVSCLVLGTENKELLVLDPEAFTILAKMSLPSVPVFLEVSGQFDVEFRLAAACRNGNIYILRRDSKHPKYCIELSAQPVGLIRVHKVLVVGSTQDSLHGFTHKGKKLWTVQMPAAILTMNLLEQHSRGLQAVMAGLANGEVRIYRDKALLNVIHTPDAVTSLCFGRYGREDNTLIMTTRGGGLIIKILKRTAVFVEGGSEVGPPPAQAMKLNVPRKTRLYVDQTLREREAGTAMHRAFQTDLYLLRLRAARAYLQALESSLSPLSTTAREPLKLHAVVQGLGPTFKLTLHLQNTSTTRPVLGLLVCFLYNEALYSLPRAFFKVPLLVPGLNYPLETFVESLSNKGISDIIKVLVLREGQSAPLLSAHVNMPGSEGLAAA

Variants of: B1
Settings: with bbs1_human BBS1, Q8NFJ9

Variant	effect of a mutation on the interaction
L529E	with no effect
L533E	with no effect
L533K	with no effect
L533A	with no effect
S541K	with no effect
S541E	with no effect
S541A	with no effect
R528K	with no effect
R528A	with no effect
R528E	with no effect
D513K	with no effect
D513A	with no effect
D513E	with no effect
L559A	with no effect
L559E	with no effect
L559K	with no effect
P520A	with no effect
P520E	with no effect
P520K	with no effect
D551K	with no effect
D551E	with no effect
D551A	with no effect
S545N	disrupting interaction strength

Variant	effect of a mutation on the interaction
S545A	with no effect
S545E	with no effect
S545K	with no effect
P511A	with no effect
P511E	with no effect
P511K	with no effect
P530E	with no effect
P530A	with no effect
P530K	with no effect
P537K	with no effect
P537E	with no effect
P537A	with no effect
Q539K	with no effect
Q539E	with no effect
Q539A	with no effect
I523E	with no effect
I523A	with no effect
I523K	with no effect
K526E	with no effect
K526A	with no effect
L531K	with no effect
L531E	with no effect
L531A	with no effect

Variant	effect of a mutation on the interaction
F527A	with no effect
F527E	with no effect
F527K	with no effect
V506A	with no effect
V506E	with no effect
V506K	with no effect
V506I	disrupting interaction strength
S509K	with no effect
S509A	with no effect
S509E	with no effect
T543E	with no effect
T543A	with no effect
T543K	with no effect
N503E	with no effect
N503K	with no effect
N503A	with no effect
K542E	with no effect
K542A	with no effect
C525A	with no effect
C525E	with no effect
C525K	with no effect
A544E	with no effect
A544K	with no effect

Variant	effect of a mutation on the interaction
S561E	with no effect
S561A	with no effect
S561K	with no effect
S507K	with no effect
S507F	disrupting interaction strength
S507A	with no effect
S507E	with no effect
G538K	with no effect
G538E	with no effect
G538A	with no effect
V557K	with no effect
V557A	with no effect
V557E	with no effect
K554S	disrupting interaction strength
K554A	with no effect
K554E	with no effect
K532E	with no effect
K532A	with no effect
A504K	with no effect
A504E	with no effect
T549K	with no effect
T549E	with no effect
T549A	with no effect
